Assay results taken from patent US20050251879A1 (published 2005).

Columns and labels:
[1] = target: T1, Potato virus Y capsid protein (PVY CP) fused with the Gal4 binding domain (Potato virus Y (N strain), UniProt P04386 1-147; P18247 2797-3063); test: yeast two-hybrid, lacZ activity
T1 construct: also called pGBT9-PVY CP; PVY envelope protein

[2] = target: Tobacco vein mottling virus capsid protein (TVMV CP), Gal4 binding domain fusion (Tobacco vein mottling virus, UniProt P04386 1-147; P09814 2759-3023); test: yeast two-hybrid, HIS3 and lacZ reporters
[3] = target: T2, SNF1 fused with the Gal4 binding domain (pBD-SNF1) (UniProt P04386 1-147; P06782 1-633); test: yeast two-hybrid, lacZ activity
T2 construct: Control plasmid, bought

[4] = target: T3, Gal4 binding domain alone (pGBT1) (UniProt P04386 1-147); test: yeast two-hybrid, lacZ activity
T3 construct: Control

[5] = target: T1, Potato virus Y capsid protein (PVY CP) …; test: yeast two-hybrid, lacZ reporter

Row | Binder | binding result [2] | binding result [5] | also measured
1 | SNF4 fused with the Gal4 activation domain (pAD-SNF4) (other) MKPTQDSQEKVSIEQQLAVESIRKFLNSKTSYDVLPVSYRLIVLDTSLLVKKSLNVLLQNSIVSAPLWDSKTSRFAGLLTTTDFINVIQYYFSNPDKFELVDKLQLDGLKDIERALGVDQLDTASIHPSRPLFEACLKMLESRSGRIPLIDQDEETHREIVVSVLTQYRILKFVALNCRETHFLKIPIGDLNIITQDNMKSCQMTTPVIDVIQMLTQGRVSSVPIIDENGYLINVYEAYDVLGLIKGGIYNDLSLSVGEALMRRSDDFEGVYTCTKNDKLSTIMDNIRKARVHRFFVVDDVGRLVGVLTLSDILKYILLGSN |  |  | binding result [1]: no binding
2 | NtCPIP2a (DnaJ-like protein from Nicotiana tabacum), Gal4 activation domain fusion (other) MGLDYYNVLKVSRNASEEDLKRSYKRLAMKWHPDKNSQNKKEAEAKFKQISEAYDVLSDPQKRQIYDVYGDDALKSGQFASASPTSAGSNARGFRFNTRDAEAIFAEFFGGSGSNSGAGVGRKAAPVENKLPCSLEELYKGSRRKMKISRILLDDSGKPTTVEEVLAIHIKPGWKKGTKITFPEKGNYEPGATPGDLIFVIDEKPHAVFKRDGNDLEINQKISLLDALTGKTISLITLDGRELTIPITDIVKPGHEHIIPNEGMPISKERGKKGNLKIKFDIKFPSRLSADQKSDIRRVLCRSAD | no binding |  | 
3 | NtCPIP2b (DnaJ-like protein from Nicotiana tabacum), Gal4 activation domain fusion (other) MGLDYYDVLKVSRNASEEDLKRSYKRLAMKWHPDKNSQNKKEAEAKFKQISEAYDVLSDPQKRQIYDVYGDDALKSGQFASASPTSAGSNGRGFRFNTRDAEAIFAEFFGGSDSNSAAGVGRKAAPVENKLPCSLEELYKGSRRKMKISRILLDDSGKPTTVEEVLAIHIKPGWKKGTKITFPEKGNYEPGATPGDLIFVIDEKPHAVFKRDGNDLVINQKISLLDALTGKTISLITLDGRELTIPITDVVKPGHEHIIPNEGMPISKERGKKGNLKIKFDIKFPSRLSADQKSDIRRVLCRNSD | no binding |  | 
4 | NtCPIP1 (DnaJ-like protein from Nicotiana tabacum) fused with the Gal4 activation domain (other, also called pAD-CPIP1) MGVDYYKILKVSRNASEEDLKKSYKRLAMKWHPDKNSEKEAEAKFKQISEAYDVLSDPQKRQIYDIYGDEALKSGQFDPSSPMNGNGRGFKFDSRDAEDIFAEFFGGSDGYSRSPTGGTVRIRKPAPVENKLPCSLEELYKGSKRKMKISRIVLDVTGKPTTIEEVLAIHIKPGWKKGTKITFPEKGNHEPGAAPGDLIFVIDEKPHDVFKRDGNDLVINQKISLVDALSGKIINLATLDGRELTIPITDVVKPGHEQIIADEGMPISKEPGKKGNLRIKFEVKFPSRLSSDQKLDIRRVLGRTVD | no binding |  | binding result [3]: no binding; binding result [4]: no binding
5 | NtCPIP1 Δ115N, Gal4 activation domain fusion (other) TGGTVRIRKPAPVENKLPCSLEELYKGSKRKMKISRIVLDVTGKPTTIEEVLAIHIKPGWKKGTKITFPEKGNHEPGAAPGDLIFVIDEKPHDVFKRDGNDLVINQKISLVDALSGKIINLATLDGRELTIPITDVVKPGHEQIIADEGMPISKEPGKKGNLRIKFEVKFPSRLSSDQKLDIRRVLGRTVD |  | no binding | 
6 | NtCPIP2a Δ119N, Gal4 activation domain fusion (other) VGRKAAPVENKLPCSLEELYKGSRRKMKISRILLDDSGKPTTVEEVLAIHIKPGWKKGTKITFPEKGNYEPGATPGDLIFVIDEKPHAVFKRDGNDLEINQKISLLDALTGKTISLITLDGRELTIPITDIVKPGHEHIIPNEGMPISKERGKKGNLKIKFDIKFPSRLSADQKSDIRRVLCRSAD |  | no binding | 
7 | NtCPIP2a Δ94N, Gal4 activation domain fusion (other) RFNTRDAEAIFAEFFGGSGSNSGAGVGRKAAPVENKLPCSLEELYKGSRRKMKISRILLDDSGKPTTVEEVLAIHIKPGWKKGTKITFPEKGNYEPGATPGDLIFVIDEKPHAVFKRDGNDLEINQKISLLDALTGKTISLITLDGRELTIPITDIVKPGHEHIIPNEGMPISKERGKKGNLKIKFDIKFPSRLSADQKSDIRRVLCRSAD |  | no binding | 
